Assay results published in US20220195497A1 (ROCHE DIAGNOSTICS OPERATIONS, published 2022).

T1: hTK (UniProt P04183 1-234)
T1 sequence (looked up): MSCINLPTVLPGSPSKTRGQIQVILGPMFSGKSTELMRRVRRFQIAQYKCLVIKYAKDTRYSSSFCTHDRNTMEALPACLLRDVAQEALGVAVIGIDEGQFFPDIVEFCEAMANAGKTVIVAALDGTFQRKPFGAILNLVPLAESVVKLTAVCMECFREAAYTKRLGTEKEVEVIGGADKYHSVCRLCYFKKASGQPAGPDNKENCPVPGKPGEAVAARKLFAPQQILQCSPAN

B1: 23C11-IgG (antibody, V domains shown)
VH: CQSLEESGGRLVTPGTPLTLTCTASGFSLSNYYMSWVRQAPGKGLEWIGIIYGDDNTYCANWTKGRFTISKTSTTVDLTITSPTTEDTATYFCARGPDYIAAKMDIWGPGTLVTVSL
VL: DVVMTQTPASVEAAVGGTVTIKCQASQSISGYLSWYQQKPGQRPKLLIYRASTLESGVPSRFKGSGSGTEFTLTISDLECADAATYYCQCTYGSSTFSSYGNAFGGGTEVVVK
B2: 6C6-IgG (antibody, V domains shown)
VH: QEQLEESGGDLVKPEGSLTLTCTASRFSFSSSYWICWVRQAPGKGLEWIACIYAGDSGSSYYASWAKGRFTVSKTSSTTVTLQTTSLTAADTATYFCARASVGAAYDYFALWGPGTLVTVSS
VL: ALVMTQTPASVEAAMGGTVTIKCQASEDVSSHLAWYQQRPGQPPKLLIYGASDLASGVPSRFTGSGSGTQFTLAISDLECADAATYYCQGYYYISDSPYVFGGGTEVVVK
B3: 4H4-IgG (antibody, V domains shown)
VH: CQSLEESGGGLVQPEGSLTLTCTASGFSFSSGYDMCWVRQTPGKGLEWIACISVDSDGVTYYASWAKGRFTISKTSSTTVTLQMTSLTAADTATYFCARGYESSSGVYIPYFTLWGPGTLVTVSS
VL: DIVLTQTPASVEAAVGGTVTIKCQASQSIYSYLAWYQHKPGQPPKLLIYKASTLASGVPSRFKGSGSGTEYTLTISDLECADAATYYCQHYYYSSTSGGGVFGGGTEVVVK

What was measured:
hTK [1] = target: T1, hTK; experiment: SPR sandwich matrix on hTK; row = primary antibody; secondary antibody (competitor): 6C6-IgG
hTK [2] = target: T1, hTK; experiment: SPR sandwich matrix on hTK; row = primary antibody; secondary antibody (competitor): 4H4-IgG
hTK [3] = target: T1, hTK; experiment: SPR sandwich matrix on hTK; row = primary antibody; secondary antibody (competitor): 23C11-IgG
hTK [4] = target: T1, hTK; experiment: SPR sandwich matrix on hTK; row = primary antibody; secondary antibody (competitor): Antibody A

Binder	Molar Ratio Epitope Accessibility (MREA) (hTK [1])	Molar Ratio Epitope Accessibility (MREA) (hTK [2])	Molar Ratio Epitope Accessibility (MREA) (hTK [3])	Molar Ratio Epitope Accessibility (MREA) (hTK [4])
B1	0	0	0	0.2
B2	0	0	0	0.4
B3	0	0	0	0.2
